Data from patent US10358638B2, “Method of producing 1,5-pentadiamine using lysine decarboxylase mutant having improved thermal stability” (AJINOMOTO CO., INC., priority 2014, dated 2019).

Columns and labels:
[1] = Lysine decarboxylation reaction (1,5-PD production) in the presence of chelating agent; design: species or system Escherichia coli; details: 0.1 mM iron sulfate, 0.3 mM EDTA added, 37° C., 16 hours
Protocol: In the same manner as in Example 4, microbial cells of E. coli JM109/pCadA234 (double mutant expressing CadA at high level) were cultured, the cultured medium was prepared, and after completing the cultivation, incubated at 60° C. for one hour. The activity after incubation was measured, and the cultured medium was diluted so that the enzyme activity became 380 units/mL. 30 mL of this cultured medium containing the enzyme was added to 270 mL of a reaction solution containing 250 g/L of lysine hydrochloride (Ajinomoto Co., Ltd.), 26.5 mg/L of pyridoxal phosphate, 27.8 mg/L (0.1 mM) of iron sulfate heptahydrate and 111.6 mg/L (0.3 mM) of disodium dihydrogen ethylenediaminetetraacetate (EDTA), and the mixture was reacted at 37° C. for 16 hours. No EDTA was added in a control reaction. The pH value was 5.3 when the reaction was started, and elevated with progress of the reaction, but was kept at 7.0 by adding 30% (v/v) sulfuric acid when the pH value reached 7.0.
On the other hand, when EDTA was added, the inhibition of the reaction is restored and lysine was completely consumed. When EDTA was added, 135 g/L of 1,5-PD was formed and lysine was converted at a yield of 98%. […]

[2] = Remaining lysine decarboxylase activity of cell free extract after incubation at 68° C.; assay type: biochemical, Escherichia coli
Protocol: (§1) The activity of the lysine decarboxylase was measured according to the method described in JP patent application laid-open Publication No. 2008-193899. 0.1 mL of a microbial cell suspension or a treated product thereof was added to 1 mL of a reaction solution containing 100 mM MES-NaOH buffer (pH 6.0), 10 g/L (55 mM) of L-lysine hydrochloride and 26.5 mg/L (0.1 mM) of PLP, and then the reaction mixture was incubated at 37° C. for 5 minutes. 0.1 mL of the reaction solution was collected and added to 1 mL of 1% (v/v) phosphoric acid to stop the reaction. Lysine and 1,5-PD were quantified with HPLC by a post column OPA method (S. R. Vale and M. B. Gloria, Journal Of AOAC International (1997) vol. 80, p. 1006-1012) or a method of quantifying remaining L-lysine using a biosensor BF-5 (Oji Scientific Instruments Co., Ltd.). One unit was defined as an activity that formed 1 μmol of 1,5-PD in one minute under this condition.
A combination mutant for increasing the amount of expressed CadA was constructed using QuikChange™ Site-Directed Mutagenesis Kit (Stratagene). A mutation to alter from Val (GTT) to Ile ([…]) at position 3 was introduced using the plasmid pCadA233 as the template and using oligonucleotides v3i_r (5′-cat gtg att caa tat tgc aat aat gtt cat cta cat tcc tcc tta cg-3′(SEQ ID NO:11)) and v3i_f (5′-cgt aag gag gaa tgt aga tga aca tta ttg caa tat tga atc aca tg-3′ (SEQ ID NO:12)) as primers according to a protocol. The nucleotide sequence of the constructed plasmid was determined by the method described in Example 2 to confirm that the objective mutation had been introduced, and this plasmid was designated as pCadA234. Microbial cells of E. coli JM109/pCadA234 expressing this double mutant CadA234 at high level were cultured to prepare a cell free extract in the same manner as in Example 2. The activity in this cell free extract was 663 U/mL, which was almost the same as that from the strain expressing the wild-type enzyme.
The resulting cell free extract was diluted to 20 fold with 0.1 M MES-NaOH buffer (pH 6.0). Each crude enzyme solution was incubated at 68° C., which is a higher temperature than in Example 2, and the remaining activity was measured over time. After incubation at 68° C. for one hour, the wild-type enzyme was inactivated to 27% while the single mutant enzymes V3I and A590T were inactivated to 47% and 27%, respectively. On the contrary, the double mutant enzyme retained 70% of its activity, and even after 3 hours, still retained about 60% of its activity (FIG. 1). Therefore, it was shown that the double mutation has a synergistic effect and further improved the thermal stability.

[3] = Enzyme activity of culture media of expressing strains after heat treatment with or without disruption; assay type: cell-based, Escherichia coli
Protocol: as §1
Microbial cells of E. coli JM109/pCadA220 and E. coli JM109/pCadA234 carrying the wild-type CadA and the double mutant CadA, respectively were cultured in the LB medium. Subsequently, 15 mL of the cultured medium was inoculated into 300 mL of culture medium (25 g/L of glucose, 5 g/L of ammonium sulfate, 2 g/L of potassium phosphate, 1 g/L of magnesium sulfate heptahydrate, 20 mg/L of iron sulfate heptahydrate, 20 mg/L of manganese sulfate pentahydrate, 1 mg/L of thiamine hydrochloride, 0.45 g/L of hydrolyzed soybeans, pH 7.0) in a 500 mL jar fermenter (manufactured by ABLE & Biott Co., Ltd.), and cultured with ventilation at 300 mL/minute while stirring at 250 rpm at 30° C. for 12 hours. Culture media containing 10.1 g/L and 10.9 g/L of microbial cells in terms of dry microbial cell weight were able to be prepared for E. coli JM109/pCadA220 and E. coli JM109/pCadA234, respectively. For the purpose of improving substrate permeability, the pH value was adjusted to 5.5, and subsequently the culture media were incubated at 55° C. and 60° C., and then the culture media were directly used to measure the activity after the incubation.
Since the lysine decarboxylase is expressed within the microbial cell, when the microbial cell is used directly, lysine cannot react with the lysine decarboxylase, and the efficiency of a decarboxylation reaction is very poor. […] However, the wild-type enzyme was inactivated during the incubation when heated excessively. The mutated enzyme having the improved thermal stability could stably keep its activity even when using conditions where the wild-type enzyme was easily inactivated as shown in Example 2. When the microbial cells carrying such a mutated enzyme were used, efficient treatment in a short period of time was possible. This has shown that the mutated enzyme not only can act at higher temperature upon reaction but also can be easily used when the microbial cell is directly used.

[4] = Inhibition of enzyme activity by iron ion and effect of chelating agent EDTA; assay type: biochemical, Escherichia coli
Protocol: as §1
Cell free extracts were prepared from the strain expressing wild-type CadA and the strain overexpressing double mutant CadA, respectively in the same manner as in Examples 2 and 3. Using the resulting cell free extract, iron sulfate heptahydrate (Nacalai Tesque Inc.) at a final concentration of […] (2 mM) was added to the composition shown in Example 1, and an inhibitory effect was measured. […]

[5] = Incubation at 55° C. for 1 h, Disruption
[6] = Incubation at 55° C. for 1 h, physical treatment None
[7] = Incubation at 55° C. for 3 h, Disruption
[8] = Incubation at 55° C. for 3 h, physical treatment None
[9] = Incubation at 60° C. for 1 h, Disruption
[10] = Incubation at 60° C. for 1 h, physical treatment None
[11] = No heat treatment, physical treatment None

B1: pCadA234: lysine decarboxylase (CadA) V3I/A590T double mutant (protein, UniProt P0A9H3 1-715, looked up, variant V3I A590T)
Inducible lysine decarboxylase: MNIIAILNHMGVYFKEEPIRELHRALERLNFQIVYPNDRDDLLKLIENNARLCGVIFDWDKYNLELCEEISKMNENLPLYAFANTYSTLDVSLNDLRLQISFFEYALGAAEDIANKIKQTTDEYINTILPPLTKALFKYVREGKYTFCTPGHMGGTAFQKSPVGSLFYDFFGPNTMKSDISISVSELGSLLDHSGPHKEAEQYIARVFNADRSYMVTNGTSTANKIVGMYSAPAGSTILIDRNCHKSLTHLMMMSDVTPIYFRPTRNAYGILGGIPQSEFQHATIAKRVKETPNATWPVHAVITNSTYDGLLYNTDFIKKTLDVKSIHFDSAWVPYTNFSPIYEGKCGMSGGRVEGKVIYETQSTHKLLAAFSQASMIHVKGDVNEETFNEAYMMHTTTSPHYGIVASTETAAAMMKGNAGKRLINGSIERAIKFRKEIKRLRTESDGWFFDVWQPDHIDTTECWPLRSDSTWHGFKNIDNEHMYLDPIKVTLLTPGMEKDGTMSDFGIPASIVAKYLDEHGIVVEKTGPYNLLFLFSIGIDKTKALSLLRALTDFKRAFDLNLRVKNMLPSLYREDPEFYENMRIQELTQNIHKLIVHHNLPDLMYRAFEVLPTMVMTPYAAFQKELHGMTEEVYLDEMVGRINANMILPYPPGVPLVMPGEMITEESRPVLEFLQMLCEIGAHYPGFETDIHGAYRQADGRYTVKVLKEESKK
yield of lysine conversion [1]: 98% | remaining activity after incubation at 68° C. for one hour ([2]; 68° C., 1 hour, FIG. 1): 70% | remaining activity after incubation at 68° C. for 3 hours ([2]; 68° C., 3 hours, FIG. 1): about 60% | activity in cell free extract ([2]; before incubation): 663 U/mL | Enzyme activity [3, 5]: 758 units/ml | Relative activity [3, 5]: 98.4% | Enzyme activity [3, 6]: 475 units/ml | Relative activity [3, 6]: 61.7% | Enzyme activity [3, 7]: 659 units/ml | Relative activity [3, 7]: 85.5% | Enzyme activity [3, 8]: 601 units/ml | Relative activity [3, 8]: 78.0% | Enzyme activity [3, 9]: 754 units/ml | Relative activity [3, 9]: 97.9% | Enzyme activity [3, 10]: 426 units/ml | Relative activity [3, 10]: 55.3% | Enzyme activity ([3]; No heat treatment, Disruption): 770 units/ml | Relative activity ([3]; No heat treatment, Disruption): 100% | Enzyme activity [3, 11]: 16.0 units/ml | Relative activity [3, 11]: 2.1% | activity with 2 mM iron ion, of the activity when no iron ion was added ([4]; 2 mM iron ion, no EDTA): 64.7% | Enzyme activity ([4]; FeSO4 2 mM, EDTA 0.5 mM): 677 units/ml | Enzyme activity ([4]; FeSO4 2 mM, EDTA 1 mM): 680 units/ml | Enzyme activity ([4]; FeSO4 2 mM, EDTA 2 mM): 677 units/ml | Enzyme activity ([4]; FeSO4 2 mM, EDTA 4 mM): 672 units/ml | Enzyme activity ([4]; FeSO4 2 mM, EDTA 5 mM): 669 units/ml | Enzyme activity ([4]; FeSO4 2 mM, EDTA None): 443 units/ml | Enzyme activity ([4]; FeSO4 None, EDTA 2 mM): 677 units/ml | Enzyme activity ([4]; FeSO4 None, EDTA None): 685 units/ml
